{"source": "the domain aggregation screens of Martell et al. (2025)", "data": [{"experiment": "soluble fraction after stress (log2 fold change); higher = more stays soluble; pooled small domains, quantitative proteomics", "details": "stress: 75 degC", "values": [{"sequence": "HMDHKTKLQEVLQKSGDVFIEYRLIKEEGPAHERIFWIEVYVDDQLIGTGQGKSKKLAEQAAAENALAALE", "soluble fraction (log2)": -1.21}, {"sequence": "HMDIEHREMKLQKLVITADSPLVGKTLKESNVRQRYNFMVVGVEEGQKNLTMINPNRRFEVGDIVWVVGEE", "soluble fraction (log2)": -0.743}, {"sequence": "HMDIFGREAEVEQILQEVRFGDDPHYRLSIGILPVTGHAGAGKTALVRFIFHHEVARAEFTVRMWVHV", "soluble fraction (log2)": 0.154}, {"sequence": "HMDIGKNIQTIRYANKLTQDQVIAKLNLMGISMSKSTYAKLETNRMNIKVSELVALAKIFHTDINAF", "soluble fraction (log2)": -2.62}, {"sequence": "HMDIGTYTVTASALNIRQYPTASSAKTGSYPNGSIVTIYEYLTDGSWGRTDDGWISMNYVSRRY", "soluble fraction (log2)": -1.93}, {"sequence": "HMDIHSEEYILGQNIRKYRLRLGWSQADLSNAVDIDRADISKYENGAKGIMSSTLLRKFAKALGVSMDALM", "soluble fraction (log2)": -3.32}, {"sequence": "HMDILPRMVASEMRAVGVPPERMTREEKGTVIRNLMNAGIHQMKGAVVEIARQLHLSEPTVYRYIKREKG", "soluble fraction (log2)": -0.664}, {"sequence": "HMDINMELGKNIRRLRKLNNLTQQSLANQMNRSKTLIALWEKGERDPSSIDLKRLSEIFNVRADDIIG", "soluble fraction (log2)": -0.799}, {"sequence": "HMDIRMLLSDREEEIMILLSKGLSISEAANRMQIGQASAATYLNRARRKLKAETVRQAVAIWTGD", "soluble fraction (log2)": -1.87}, {"sequence": "HMDISAFDTEFIISKFGGIRPMAQKLGVPVSTVQGWKQRQTIPQNRMGDILEAAKNYNLELTP", "soluble fraction (log2)": -0.112}, {"sequence": "HMDISPAAKQRLALIQPLLEKNAEAITDRKLRNAVAKDIANNQNTTVRRVLRLYYRYLATGQVM", "soluble fraction (log2)": 0.192}, {"sequence": "HMDIVIPIQVKNVSSGEVLDFPSIRAAARDLKFPKTTISLGVRYAGEKAYKGFVMRYRSDDPWPIVQES", "soluble fraction (log2)": -2}, {"sequence": "HMDIYLDEVNRKILHLLSQGIKTRSLREYINLSMSAIEKRKKHMKELFLVEDGKDETLLNEARNKGF", "soluble fraction (log2)": -1.88}, {"sequence": "HMDIYLTAFKTTSNQVTLNGIARSDLIISEFMRDIRDAKLFGEPVLQVIQNKNLNNVQARVFELVVPL", "soluble fraction (log2)": 0.115}, {"sequence": "HMDKATMRWEQIEKFLETHPYIMNADVRALFNVSAATANRILATLTTEGKLVKYREGGHWAYKY", "soluble fraction (log2)": -1.1}, {"sequence": "HMDKELILLWDRVKSKVWQMDIQDSQVANWFQRNYHLTVRLRDFDPPVPPDKFTAEQLASFIKDIERHT", "soluble fraction (log2)": -2.41}, {"sequence": "HMDKGMQTMIDNLHKNTGKTLEEWIALVNRANFAKHGEVISFLKEKHGLTHGYANLVAHRLK", "soluble fraction (log2)": 0.863}, {"sequence": "HMDKINQEAIEDEAGLWLAKIDGRQLAQEEVRELIAWMRRSDFHREYLITLARQWDGMAALNKLATLFP", "soluble fraction (log2)": -2.08}, {"sequence": "HMDKLFNRQTLGGVELTQKQIEDLNAGKAIFVEGMQRKDGEVFSSYVKLDEATGRPSYTRYNPDSP", "soluble fraction (log2)": 0.933}, {"sequence": "HMDKLSYALGLSMGHNFLGSGIKSLNVEDFAKGVEAVYKQEKPEISFDEAKKIINEFFSNLQDEIAE", "soluble fraction (log2)": -1.01}, {"sequence": "HMDKNLQYADTPKGKLREYIKNLPNGSTVNRQKLAEEFGIKKQSMGTVTEVFQEFPDKNFKFVNP", "soluble fraction (log2)": -0.0476}, {"sequence": "HMDKPVIEDVSFDDLAYMVGERVIIRTHLRSTRDGELKSFNRAGILVSLRNRPGMELEIPRSTVASAQVVW", "soluble fraction (log2)": -2.39}, {"sequence": "HMDKQEKIHKKKIIILEALKRLLQNDVYSRITVQAVADEAGFSKGGLLHYFPTKEEMYIEFMEY", "soluble fraction (log2)": -0.103}, {"sequence": "HMDKRYYYRILGLVGEPTRDQIEAAYETRIAKLRSSDYGDDPLYARRKISEVTMAYKVLTGS", "soluble fraction (log2)": -1.56}, {"sequence": "HMDKSFLQSLHLIALGIVKNQMDPWELVNGWVEYYLKNKDKYIDHPNLKAVAVLKMKGLFIDHFRKS", "soluble fraction (log2)": -5.84}, {"sequence": "HMDKSHYEELGVSRTATHAEIRRAYRHLMRTLHPDSNDGRVDAVRITKVNEAWNVLSQSSSRNAYDKSQV", "soluble fraction (log2)": -0.235}, {"sequence": "HMDKTTIKNEQKKQILIFAEMNLFFKAKDVAELLGLQASRARYLLQELVKDGKIQGIGNNKGRKYQLI", "soluble fraction (log2)": -0.729}, {"sequence": "HMDKVEQLMQNPVIQEKMSEGDRELLRNASLVVLGRLEDDGSIIQRFVELFGEEAYERLKSELM", "soluble fraction (log2)": -0.0149}, {"sequence": "HMDLDIGSVLQASRGEKKISLRQLAERTGLTASMLSQIERNLVNPSINTLKVIAAALEIPMYKFFMG", "soluble fraction (log2)": -1.17}, {"sequence": "HMDLEMLEVEDTIKDLLSQHQKINAIKYYRNYMSEQLNVDMGLRQAKDTIDAIGRGATVDLSVGY", "soluble fraction (log2)": -0.0747}, {"sequence": "HMDLIEVLAQDTIKKIYNTYVAYKNKVDVFYVAFSGGKDSIVTLDLVQRTLPHNEFKVLFGDTGM", "soluble fraction (log2)": 0.243}, {"sequence": "HMDLIFQKGDLVFSTEHNQRGIFYEYLEQGQAKISIEKQFFVVAARRLQLLTKREVLYPAGYDLDQLFV", "soluble fraction (log2)": -2.21}, {"sequence": "HMDLKENQHILQISNKGVQMGNVLKDLIIQTLNITNGNQIKAAKLLAISRAKLRYRIEQLGINISGKNI", "soluble fraction (log2)": 0.000197}, {"sequence": "HMDLKHNQITMRELLRNKQAYLLLYKEFPMFMTPAILQNIRPLTLQQIIQMVRPYISRPKLNMLLEQLENI", "soluble fraction (log2)": 0.164}, {"sequence": "HMDLMQRVIIVRPVMQGDYLTRAHLGLQTLSRNGGGGFTDIDDLVGRRAKKSLRAGLVVHNRHL", "soluble fraction (log2)": -0.813}, {"sequence": "HMDLPAEFSKPELETLFKRGKQSGELSLTEVRDALEAAQLPNKKTQTKVLKVLSDNAIHVLMDG", "soluble fraction (log2)": 0.0744}, {"sequence": "HMDLPDFTSRERDILARVVQGDSNERIAASLGVSVSTVKTHIGNILRKTGQTNRVRLIVWATRHL", "soluble fraction (log2)": -2.58}, {"sequence": "HMDLPDYYFRVRENGAVVFRVGTENRQRRIEMVEIATVNVKNGNIKPHGEVDLTKADRLAIGEWLAARQAQ", "soluble fraction (log2)": -1.54}, {"sequence": "HMDLPRQSQYQALVVSYARRAGIDEAEEDLLAAFEVWRMRHNHDLAGGRTARDFILAYLPQYQRHKE", "soluble fraction (log2)": -1.98}, {"sequence": "HMDLQNIQNQLNTEFAKSDTRIIFWFDDKGEYEDEVSELQLGDVKLHILDGLNWFYSKYLLNEA", "soluble fraction (log2)": -0.141}, {"sequence": "HMDLRAPKPIKEMGEEYIKLYQYLRKGESENIVMSKMNISLDDYDYMRSEIEDKLSLYNMLDLLRKP", "soluble fraction (log2)": -0.978}, {"sequence": "HMDLRVKRTNKMIMEAFIHLVEQKGYDNITVQEIADEAMINRATFYAHFKDKQDLYDHIFKQAI", "soluble fraction (log2)": -0.902}, {"sequence": "HMDLSPEQAELAAIRGELGIKIDDYALALNIPRDRLTSYLYGRANVPAEVLISARELRYASSA", "soluble fraction (log2)": -0.0206}, {"sequence": "HMDMQNIQKGLSAIEPGRTFSREEYYAAIQNGSEMLLKEDALAYSLRKSLSDGDIVRVSWNQYAIP", "soluble fraction (log2)": -0.107}, {"sequence": "HMDMTPEEFLAWARHKPFGDPFPKTQTVTFLVPLLGVSRTNIFTWISGKVNPSKTSLLLMEALKRENR", "soluble fraction (log2)": -0.493}, {"sequence": "HMDNEIEQIVEDLNLTLSSLKYTKNQIESILPLIIKEIDDFKKKEKNISFENLLKLAMNHLDND", "soluble fraction (log2)": -0.38}, {"sequence": "HMDNEIRIPLPSLQRDGFSIGTREDDGSQLVRIMSAGSFGGMIRSFRLPEGMRIEGAKWEGEIVSIRL", "soluble fraction (log2)": -0.00847}, {"sequence": "HMDNEVTIAVQVNGKLRDKLIVALDTPNEKIEQLALALPKVIQNTSGLTVRKVIVIPNRLVNIVA", "soluble fraction (log2)": -1.92}, {"sequence": "HMDNIKRGEMFYISRGGASYSGSEQHSDRPAVVVSNDKNNENSNVVEVVYMTTQPKTDLPTHVTVR", "soluble fraction (log2)": 0.0515}, {"sequence": "HMDNLKELDEILETYGKKKGYLITILQKAQDAYGYISIDIMNRISEFTGIKVAKIYGVATFYAQFRL", "soluble fraction (log2)": 0.0785}]}]}
